# Assay results published in patent publication US20050260697.
# Key:
# [1] = target: human cardiac Troponin-T2 (UniProt P45379)
# [2] = target: human cardiac Troponin-I3 (UniProt P19429)
# human cardiac Troponin-I3, sequence (P19429 whole entry, looked up): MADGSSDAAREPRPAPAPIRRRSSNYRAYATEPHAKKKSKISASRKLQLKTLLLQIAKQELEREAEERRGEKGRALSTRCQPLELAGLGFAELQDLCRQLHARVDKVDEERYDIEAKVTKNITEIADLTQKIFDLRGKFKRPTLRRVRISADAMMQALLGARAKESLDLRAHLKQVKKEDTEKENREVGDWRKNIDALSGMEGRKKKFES
substance,measurement,setting,value
calpain-2,"in vitro protease digestion, breakdown products on gels",[1],"human cardiac Troponin-T2 and Troponin-13 were cleaved by calpain-2 and caspase-3 proteases, producing unique breakdown products"
same,stated: cleaves (breakdown bands on a gel),[1],"in the two Calpain-2 lanes (rising amount) the Troponin-T2 band at the 30 kDa mark fades and a band b appears between the 15 and 10 kDa marks; arrowheads a, b and c mark products between 15 and 10 kDa beside the higher-amount lane; none of these is in the untreated lane"
same,"in vitro protease digestion, breakdown products on gels",[2],"human cardiac Troponin-T2 and Troponin-13 were cleaved by calpain-2 and caspase-3 proteases, producing unique breakdown products"
same,stated: cleaves (breakdown bands on a gel),[2],the Tn-I3 (24 kDa) band stays in both Calp-2 lanes (rising amount); arrows A and B mark two faint products below it at the higher-amount lane
